Test results: IntAct's records for PubMed 29892012

B1: Enhancer of mRNA-decapping protein 3 (Homo sapiens), Q96F86 (parent)
chain: MATDWLGSIVSINCGDSLGVYQGRVSAVDQVSQTISLTRPFHNGVKCLVPEVTFRAGDITELKILEIPGPGDNQHFGDLHQTELGPSGAGCQVGINQNGTGKFVKKPASSSSAPQNIPKRTDVKSQDVAVSPQQQQCSKSYVDRHMESLSQSKSFRRRHNSWSSSSRHPNQATPKKSGLKNGQMKNKDDECFGDDIEEIPDTDFDFEGNLALFDKAAVFEEIDTYERRSGTRSRGIPNERPTRYRHDENILESEPIVYRRIIVPHNVSKEFCTDSGLVVPSISYELHKKLLSVAEKHGLTLERRLEMTGVCASQMALTLLGGPNRLNPKNVHQRPTVALLCGPHVKGAQGISCGRHLANHDVQVILFLPNFVKMLESITNELSLFSKTQGQQVSSLKDLPTSPVDLVINCLDCPENVFLRDQPWYKAAVAWANQNRAPVLSIDPPVHEVEQGIDAKWSLALGLPLPLGEHAGRIYLCDIGIPQQVFQEVGINYHSPFGCKFVIPLHSA
B2: Ligand of Numb protein X 2 (Homo sapiens), Q8N448 (parent)
chain: MGTTSDEMVSVEQTSSSSLNPLCFECGQQHWTRENHLYNYQNEVDDDLVCHICLQPLLQPLDTPCGHTFCYKCLRNFLQEKDFCPLDRKRLHFKLCKKSSILVHKLLDKLLVLCPFSSVCKDVMQRCDLEAHLKNRCPGASHRRVALERRKTSRTQAEIENENGPTLLDPAGTLSPEADCLGTGAVPVERHLTSASLSTWSEEPGLDNPAFEESAGADTTQQPLSLPEGEITTIEIHRSNPYIQLGISIVGGNETPLINIVIQEVYRDGVIARDGRLLAGDQILQVNNYNISNVSHNYARAVLSQPCNTLHLTVLRERRFGNRAHNHSDSNSPREEIFQVALHKRDSGEQLGIKLVRRTDEPGVFILDLLEGGLAAQDGRLSSNDRVLAINGHDLKYGTPELAAQIIQASGERVNLTIARPGKPQPGNTIREAGNHSSSSQHHTPPPYYSRPSSHKDLTQCVTCQEKHITVKKEPHESLGMTVAGGRGSKSGELPIFVTSVPPHGCLARDGRIKRGDVLLNINGIDLTNLSHSEAVAMLKASAASPAVALKALEVQIVEEATQNAEEQPSTFSENEYDASWSPSWVMWLGLPSTLHSCHDIVLRRSYLGSWGFSIVGGYEENHTNQPFFIKTIVLGTPAYYDGRLKCGDMIVAVNGLSTVGMSHSALVPMLKEQRNKVTLTVICWPGSLV
partner: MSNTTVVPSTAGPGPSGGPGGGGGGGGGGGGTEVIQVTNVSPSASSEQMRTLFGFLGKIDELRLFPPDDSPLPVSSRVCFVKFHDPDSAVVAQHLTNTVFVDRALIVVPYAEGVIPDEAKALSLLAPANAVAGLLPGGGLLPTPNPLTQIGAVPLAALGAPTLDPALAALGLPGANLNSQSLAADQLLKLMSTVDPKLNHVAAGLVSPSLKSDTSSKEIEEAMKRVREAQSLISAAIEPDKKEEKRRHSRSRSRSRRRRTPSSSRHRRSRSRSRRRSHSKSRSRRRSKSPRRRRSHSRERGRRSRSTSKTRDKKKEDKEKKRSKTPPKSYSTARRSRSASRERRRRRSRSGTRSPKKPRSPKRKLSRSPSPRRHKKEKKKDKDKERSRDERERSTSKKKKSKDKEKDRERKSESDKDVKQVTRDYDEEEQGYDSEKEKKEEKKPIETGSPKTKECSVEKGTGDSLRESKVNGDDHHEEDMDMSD
B3: Cyclic AMP-dependent transcription factor ATF-4 (Homo sapiens), P18848 (parent)
chain: MTEMSFLSSEVLVGDLMSPFDQSGLGAEESLGLLDDYLEVAKHFKPHGFSSDKAKAGSSEWLAVDGLVSPSNNSKEDAFSGTDWMLEKMDLKEFDLDALLGIDDLETMPDDLLTTLDDTCDLFAPLVQETNKQPPQTVNPIGHLPESLTKPDQVAPFTFLQPLPLSPGVLSSTPDHSFSLELGSEVDITEGDRKPDYTAYVAMIPQCIKEEDTPSDNDSGICMSPESYLGSPQHSPSTRGSPNRSLPSPGVLCGSARPKPYDPPGEKMVAAKVKGEKLDKKLKKMEQNKTAATRYRQKKRAEQEALTGECKELEKKNEALKERADSLAKEIQYLKDLIEEVRKARGKKRVP
partner: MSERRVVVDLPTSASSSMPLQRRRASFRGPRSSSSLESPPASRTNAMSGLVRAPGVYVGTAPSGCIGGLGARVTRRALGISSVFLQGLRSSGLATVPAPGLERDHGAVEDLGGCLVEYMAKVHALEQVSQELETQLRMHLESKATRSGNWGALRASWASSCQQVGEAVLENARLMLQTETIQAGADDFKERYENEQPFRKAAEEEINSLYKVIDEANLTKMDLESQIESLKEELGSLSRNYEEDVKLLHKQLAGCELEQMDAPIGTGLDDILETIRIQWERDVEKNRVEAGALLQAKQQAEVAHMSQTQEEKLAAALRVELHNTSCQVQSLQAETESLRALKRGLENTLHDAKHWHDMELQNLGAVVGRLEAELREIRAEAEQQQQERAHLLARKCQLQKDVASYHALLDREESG
B4: Ligand of Numb protein X 2 (Homo sapiens), Q8N448 (parent)
chain: B2 chain
partner: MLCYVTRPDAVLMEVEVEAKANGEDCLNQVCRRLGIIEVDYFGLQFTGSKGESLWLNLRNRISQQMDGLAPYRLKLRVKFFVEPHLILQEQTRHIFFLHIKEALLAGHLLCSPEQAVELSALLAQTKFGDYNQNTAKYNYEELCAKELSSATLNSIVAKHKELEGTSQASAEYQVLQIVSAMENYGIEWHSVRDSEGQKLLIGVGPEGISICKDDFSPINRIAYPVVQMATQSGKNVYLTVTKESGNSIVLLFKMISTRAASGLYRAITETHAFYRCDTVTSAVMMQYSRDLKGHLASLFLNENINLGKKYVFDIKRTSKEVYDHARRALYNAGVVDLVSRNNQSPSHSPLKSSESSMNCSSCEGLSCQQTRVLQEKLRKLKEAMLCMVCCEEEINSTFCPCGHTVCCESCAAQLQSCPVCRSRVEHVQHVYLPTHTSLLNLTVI
B5: Keratin, type I cuticular Ha8 (Homo sapiens), O76015 (parent)
chain: MTSSYSSSSCPLGCTMAPGARNVSVSPIDIGCQPGAEANIAPMCLLANVAHANRVRVGSTPLGRPSLCLPPTCHTACPLPGTCHIPGNIGICGAYGENTLNGHEKETMQFLNDRLANYLEKVRQLEQENAELEATLLERSKCHESTVCPDYQSYFHTIEELQQKILCSKAENARLIVQIDNAKLAADDFRIKLESERSLRQLVEADKCGTQKLLDDATLAKADLEAQQESLKEEQLSLKSNHEQEVKILRSQLGEKLRIELDIEPTIDLNRVLGEMRAQYEAMLETNRQDVEQWFQAQSEGISLQDMSCSEELQCCQSEILELRCTVNALEVERQAQHTLKDCLQNSLCEAEDRFGTELAQMQSLISNVEEQLSEIRADLERQNQEYQVLLDVKTRLENEIATYRNLLESEDCKLPCNPCSTSPSCVTAPCAPRPSCGPCTTCGPTCGASTTGSRF
partner: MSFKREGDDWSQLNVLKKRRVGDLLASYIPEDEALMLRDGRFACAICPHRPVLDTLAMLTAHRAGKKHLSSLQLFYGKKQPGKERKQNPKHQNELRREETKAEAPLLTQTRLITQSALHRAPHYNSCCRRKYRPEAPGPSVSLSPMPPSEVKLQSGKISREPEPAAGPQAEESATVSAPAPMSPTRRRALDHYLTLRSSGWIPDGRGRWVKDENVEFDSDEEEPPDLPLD

Variants of: B1
Details: with ddx6_human DDX6, P26196
Chain of ddx6_human DDX6, P26196 (P26196 whole entry): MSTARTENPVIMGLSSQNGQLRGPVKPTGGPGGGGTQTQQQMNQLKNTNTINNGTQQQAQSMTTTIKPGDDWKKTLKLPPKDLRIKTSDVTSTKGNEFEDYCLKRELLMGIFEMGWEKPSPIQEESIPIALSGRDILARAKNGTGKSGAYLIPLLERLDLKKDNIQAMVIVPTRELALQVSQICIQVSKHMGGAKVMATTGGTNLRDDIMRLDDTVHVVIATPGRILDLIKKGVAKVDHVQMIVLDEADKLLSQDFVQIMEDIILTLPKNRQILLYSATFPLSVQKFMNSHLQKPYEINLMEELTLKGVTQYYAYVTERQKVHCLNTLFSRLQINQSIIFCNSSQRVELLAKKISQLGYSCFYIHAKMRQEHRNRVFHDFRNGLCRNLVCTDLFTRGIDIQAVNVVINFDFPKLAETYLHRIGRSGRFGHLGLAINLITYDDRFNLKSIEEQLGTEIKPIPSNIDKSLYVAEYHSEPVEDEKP
In the case of F213L, the “effect of a mutation on the interaction” value is reported as “disrupting interaction strength”.

Variants of: B2
Details: with srs11_human SRSF11, Q05519
With P669A the “effect of a mutation on the interaction” value was “with no effect”.

Variants of: B3
Details: with bfsp2_human BFSP2, Q13515
In the case of L180F, the “effect of a mutation on the interaction” value is reported as “with no effect”.

Variants of: B4
Details: with mylip_human MYLIP
In the case of P669A, the “effect of a mutation on the interaction” value is reported as “with no effect”.

Variants of: B5
Details: with scnm1_human SCNM1, Q9BWG6
In the case of D306A, the “effect of a mutation on the interaction” value is reported as “with no effect”.

Variants of: B5
Details: with scnm1_human SCNM1, Q9BWG6
Remark: another data set of the same source
For N270K, the “effect of a mutation on the interaction” value was “with no effect”.
